# From US6905817B1, “Ret-independent signaling pathway for GDNF” (Licestia Ltd., priority 1998, dated 2005)
# Entries after “also recorded” stand apart in the source; their conditions may differ.
# What was measured:
# [1] = system: Src-type kinase; assay: Immuno-complex kinase assay on anti-GFRα1 co-precipitates from SHEP neuroblastoma cells; assay type: cell-based, human; conditions: GDNF 100 ng/ml
# Experimental: DRG neurons (5×10^5), SHEP neuroblastoma cells (10^7), Neuro2A neuroblastoma cells stably transfected with GFRα1 (10^7) or NIH3T3 cells (NIH3T3/pBpGFRα1) stably transfected with GFRα1 (10^7) were incubated in serum-free culture medium without (control) or with GDNF (GDNF-treated) for 0.5-15 min at 37° C. The cells were washed twice with cold PBS/vanadate and lysed in TX-100 lysis buffer (50 mM Tris-HCl, pH 7.5, 150 mM NaCl, 5 mM EDTA, 1% Triton X-100, 1 mM sodium orthovanadate, 1 mM phenylmethylsulfonyl fluoride (PMSF) and protease inhibitors (Boehringer) on ice for 1 hour. The postnuclear lysates were pre-cleared by incubation with 50 μl of 50% Protein G-Sepharose for goat polyclonal antibodies or Protein A-Sepharose CL4B (Pharmacia) for rabbit polyclonal antibodies for 1 hour at +4° C. After removal of the beads, the supernatants were incubated with 0.4-0.5 μg of anti-GFRα1 or anti-Yes polyclonal antibodies (Santa Cruz Biotechnology) overnight at +4° C. followed by incubation with Protein G or A-Sepharose for 2 hours. The immunocomplexes were washed twice in TX-100 lysis buffer without EDTA and twice in kinase buffer (25 mM Hepes, pH 7.4, 5 mM MgCl2, 5 mM MnCl2, 1 mM sodium orthovanadate). […] Quantification of the optical density of the blots was performed using the TINA program. […]
# [2] = system: wild type mouse DRG neurons; assay: GDNF-evoked [Ca^2+]i changes, confocal microscopy with Calcium Green-1AM, wild type DRG neurons; assay type: cell-based
# Experimental: DRG from embryonic day 18 (E18) mice were treated with trypsin (Worthington), non-neuronal cells removed by preplating, and about 95% pure neurons cultured on poly-ornithine-laminin-coated glass coverslips in Ham's F14 medium (Imperial Laboratories) with serum substitute containing NGF, BDNF and NT-3 (all from PeproTech, 2 ng/ml if each) for at least 1 day before measurement. Neurotrophins were extensively washed out before GDNF application. GDNF was from PeproTech and donated by Cephalon, Inc. Ret-deficient mice (Schuchardt et al., 1994) were identified from heterozygote matings by the absence of kidneys and PCR-based genotyping. GFRα2-deficient mice were obtained from homozygote matings (Rossi et al., 1999).
# [Ca^2+]i was measured using a Bio-Rad MRC-1024 confocal microscope equipped with an argon-krypton laser. The cells were loaded with 10 μM Calcium Green-1AM (Molecular Probes), a membrane permeable Ca^2+ dye, by 30 min incubation in serum free cell-culture media at 37 ° C. and 5 % CO2. After loading, the neurons were kept at room temperature in Dulbecco's PBS solution contained 20 mM HEPES (pH=7.4) for at least 20 min prior to the experiments. All compounds were applied to the bath by a peristaltic pump. 6 kD Heparin (Sigma) and Alexa 568 nm fluorescent dye (Molecular Probes) were loaded into the cells using Molecular Probes' pinocytotic influx loading reagent basically according to the manufacturer instructions. […] Cell injection was performed using Eppendorf microinjection system. The average intensity of fluorescence in the predefined ROI (Region Of Interest) was measured on-line using TimeCourse software from BioRad. The calibration of fluorescence traces was performed in vitro using Fmax and Fmin values obtained with the calcium calibration buffer kit (Molecular Probes). Because the calibration solutions may not reflect the intracellular environment, the experimental data are presented as delta [Ca^2+]i calculated using Kd=190 nM for Calcium Green-1.
# [3] = system: CREB; assay: CREB Ser-133 phosphorylation assay in Ret^−/− DRG neurons; assay type: cell-based, mouse; conditions: after GDNF treatment
# Experimental: To assess GDNF-dependent MAPK and CREB phosphorylation in all studied cell lines, the semiconfluent cell monolayers were starved for 3 hours in serum-free medium, and then GDNF was applied for the indicated time. For the analysis of MAPK and CREB activation in Ret^−/− animals the DRG neurons were dissected from E18 mice and maintained in NGF-containing medium for 2 hours. After this time the neurons were deprived of NGF by placing them in NGF-free medium in the presence of anti-NGF antibodies. After 2 hr without NGF, the neurons were stimulated with GDNF. In the experiments involving Src-kinase inhibition, a Src-family kinase inhibitor PP2 was added at the indicated concentrations to the cell monolayers 5 min before GDNF application. In some experiments 1 μg/ml of soluble GFRα1 lacking a GPI anchor (GFRα1/Fc chimeric protein; R&D systems) was added 5 min prior to the GDNF application and was kept in the solution during the GDNF treatment, After stimulation, the cells were briefly washed with PBS/sodium vanadate and lysed in the buffer containing TBS, 2 mM EDTA, 1% NP-40, 1% Triton X-100, 1 mM PMSF, 1 mM Na3VO4 and a Complete, protease inhibitors cocktail (Boehringer Mannheim). Total cell protein for each extract was measured by MicroBSA (Pierce) and an equivalent amount of protein was resolved electrophoretically on 10% polyacrylamide gels. […]
molecule,measurement,setting,value
"Glial cell line—derived neurotrophic factor (protein, UniProt P39905 78-211, looked up, TGF-β family-related neurotrophic protein; from PeproTech and donated by Cephalon, Inc) Glial cell line-derived …: SPDKQMAVLPRRERNRQAAAANPENSRGKGRRGQRGKNRGCVLTAIHLNVTDLGLGYETKEELIFRYCSGSCDAAETTYDKILKNLSRNRRLVSDKVGQACCRPIAFDDDLSFLDDNLVYHILRKHSAKRCGCI",Src type kinase activity associated with GFRα1,"[1]; 1 min, postnuclear lysate",significantly increased Src type kinase activity
same,increase of Src-type kinase activity,"[1]; Triton X-100 insoluble fractions, relative to non-treated cells",twelve-fold
same,wild type DRG neurons in which GDNF-evoked changes in [Ca^2+]i were observed,[2],60-70%
same,change in [Ca^2+]i,[2]; GDNF 10 ng/ml,induced a rapid transient increase in [Ca^2+]i
same,change in [Ca^2+]i,[2]; GDNF concentrations over 10 ng/ml (10-100 ng/ml),evoked rapid and long-lasting elevations in [Ca^2+]i; also recorded: evoked both a transient and slow long-lasting elevation in [Ca^2+]i
same,CREB phosphorylation in Ser-133,[3],increased substantially already at 5 min
